Source: patent US20180214548A1

B1: chimeric anti-PD-1 antibody 76G5B3 (antibody, V domains shown)
VH: QVQLVESGGGVVQPGRSLRLSCAASGFTFSDYGFHWVRQAPGKGLEWVAVIWYDGSNEYYTDSVKGRFTISRDNSKNTLYLQMNSLRAEDTAMYFCVVNPFDYWGQGTLVTVSS
VL: DIQMTQSPSSLSAFVGDRVTITCRASQGINHYLAWYQQKPGKAPNLLILAASTLLSGVPSRFGGRGSGTDFTLIISSLQPEDVATYYCQKYDSAPYTFGQGTKLEIK
B2: chimeric anti-PD-1 antibody 21G8F11 (antibody, V domains shown)
VH: EVQLLESGGGLAQPGGSLRLSCAASGFSFNTYLMHWVRQAPGKGLEWVSAISGGGGNTYYADSVKGRFTISRDNSKNTLYLQMNSLRAEDTAVYYCAKENRIPVAPFDYWGQGTLVTVSS
VL: DIQMTQSPSTLSASVGDRVTITCRASQSISTWLAWYQQKPGKAPKLLIYKASSLESGVPSRFSGSGSGTEFTLTISSLQPDDLATYYCQQYNSFSWTFGQGTKVEIK

Biological target: NC-Fc
Assay: ELISA, coated protein 1 ug/mL; antibody concentration not stated

Row | OD450 nm | Binder
1 | 0.268 | B1
2 | 0.161 | B2
